Data reported in US20140274782A1, “AFFINITY REAGENTS AND METHODS FOR DETECTION, PURIFICATION, AND PROTEOMIC ANALYSIS OF METHYLATED PROTEINS” (The Board of Trustees of the Leland Stanford Junior …, priority 2013, published 2014).

T1: G9a and GLP (Homo sapiens, UniProt Q96KQ7+Q9H9B1)
T1 sequence (Q96KQ7 2-1210 limits assumed): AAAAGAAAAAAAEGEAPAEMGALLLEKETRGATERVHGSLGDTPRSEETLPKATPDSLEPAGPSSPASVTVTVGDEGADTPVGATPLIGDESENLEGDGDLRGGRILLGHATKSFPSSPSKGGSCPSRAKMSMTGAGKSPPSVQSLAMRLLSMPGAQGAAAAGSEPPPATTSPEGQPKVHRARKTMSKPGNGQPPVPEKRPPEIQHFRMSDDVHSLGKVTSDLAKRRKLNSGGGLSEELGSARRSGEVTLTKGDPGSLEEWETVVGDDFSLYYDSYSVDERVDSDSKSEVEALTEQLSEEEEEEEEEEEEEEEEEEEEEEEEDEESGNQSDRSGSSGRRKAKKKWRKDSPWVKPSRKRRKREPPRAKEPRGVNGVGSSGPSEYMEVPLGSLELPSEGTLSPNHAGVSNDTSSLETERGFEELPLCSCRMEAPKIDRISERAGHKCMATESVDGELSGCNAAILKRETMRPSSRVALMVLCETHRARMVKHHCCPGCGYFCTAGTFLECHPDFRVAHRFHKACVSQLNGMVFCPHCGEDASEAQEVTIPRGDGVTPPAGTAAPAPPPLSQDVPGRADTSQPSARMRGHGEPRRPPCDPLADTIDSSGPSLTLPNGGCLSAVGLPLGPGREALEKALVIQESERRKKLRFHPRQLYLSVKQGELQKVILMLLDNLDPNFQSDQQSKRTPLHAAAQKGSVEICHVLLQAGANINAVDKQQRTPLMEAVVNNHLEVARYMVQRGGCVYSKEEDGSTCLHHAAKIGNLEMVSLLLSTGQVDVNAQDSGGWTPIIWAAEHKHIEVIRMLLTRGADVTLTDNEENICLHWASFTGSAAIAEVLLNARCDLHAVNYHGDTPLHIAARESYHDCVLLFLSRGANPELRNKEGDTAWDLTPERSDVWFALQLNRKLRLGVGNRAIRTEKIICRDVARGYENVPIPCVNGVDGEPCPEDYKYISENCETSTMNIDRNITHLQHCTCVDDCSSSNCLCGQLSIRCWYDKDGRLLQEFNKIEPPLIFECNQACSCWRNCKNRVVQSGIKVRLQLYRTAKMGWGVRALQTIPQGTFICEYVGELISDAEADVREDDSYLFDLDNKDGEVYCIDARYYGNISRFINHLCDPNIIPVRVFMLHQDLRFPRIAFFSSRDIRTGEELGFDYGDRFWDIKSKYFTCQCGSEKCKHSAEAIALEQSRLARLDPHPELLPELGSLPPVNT
T1 sequence (Q9H9B1 2-1298 limits assumed): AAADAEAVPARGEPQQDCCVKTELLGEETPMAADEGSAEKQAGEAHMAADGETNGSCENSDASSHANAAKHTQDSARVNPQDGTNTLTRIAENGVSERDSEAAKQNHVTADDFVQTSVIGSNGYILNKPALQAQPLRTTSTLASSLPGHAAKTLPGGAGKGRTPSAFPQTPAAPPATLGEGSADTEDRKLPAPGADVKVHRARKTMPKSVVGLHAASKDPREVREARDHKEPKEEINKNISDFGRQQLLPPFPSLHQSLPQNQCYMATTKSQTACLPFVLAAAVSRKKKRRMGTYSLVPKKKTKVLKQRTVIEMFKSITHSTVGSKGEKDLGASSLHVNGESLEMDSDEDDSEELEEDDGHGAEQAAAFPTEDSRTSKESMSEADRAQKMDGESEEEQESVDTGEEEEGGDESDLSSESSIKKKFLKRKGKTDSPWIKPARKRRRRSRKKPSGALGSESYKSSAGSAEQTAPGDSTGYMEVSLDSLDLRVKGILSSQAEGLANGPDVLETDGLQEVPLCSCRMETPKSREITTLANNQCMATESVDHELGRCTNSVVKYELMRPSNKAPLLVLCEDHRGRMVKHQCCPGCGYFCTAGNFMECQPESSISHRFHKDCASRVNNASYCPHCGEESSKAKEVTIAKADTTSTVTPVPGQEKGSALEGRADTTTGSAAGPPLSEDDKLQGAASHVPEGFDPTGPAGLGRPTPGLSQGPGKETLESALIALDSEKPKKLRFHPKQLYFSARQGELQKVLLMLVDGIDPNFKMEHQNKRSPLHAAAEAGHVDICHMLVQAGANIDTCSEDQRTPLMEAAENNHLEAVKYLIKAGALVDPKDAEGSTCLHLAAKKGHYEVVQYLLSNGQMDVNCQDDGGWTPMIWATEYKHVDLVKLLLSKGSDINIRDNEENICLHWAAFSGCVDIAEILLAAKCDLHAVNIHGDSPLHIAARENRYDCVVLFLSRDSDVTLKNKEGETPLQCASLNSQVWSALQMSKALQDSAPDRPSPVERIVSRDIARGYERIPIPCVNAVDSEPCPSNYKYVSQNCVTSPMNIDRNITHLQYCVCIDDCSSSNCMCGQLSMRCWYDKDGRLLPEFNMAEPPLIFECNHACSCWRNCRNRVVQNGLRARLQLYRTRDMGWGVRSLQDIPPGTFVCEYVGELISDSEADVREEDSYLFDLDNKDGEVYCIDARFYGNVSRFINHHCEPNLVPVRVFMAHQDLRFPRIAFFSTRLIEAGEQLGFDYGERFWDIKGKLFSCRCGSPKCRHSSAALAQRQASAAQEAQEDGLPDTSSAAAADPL

B1: NPM3 (protein, UniProt O75607 2-178, looked up)
Nucleoplasmin-3: AAGTAAALAFLSQESRTRAGGVGGLRVPAPVTMDSFFFGCELSGHTRSFTFKVEEEDDAEHVLALTMLCLTEGAKDECNVVEVVARNHDHQEIAVPVANLKLSCQPMLSLDDFQLQPPVTFRLKSGSGPVRITGRHQIVTMSNDVSEEESEEEEEDSDEEEVELCPILPAKKQGGRP
B2: RPRD1A (protein, UniProt Q96P16 2-312, looked up)
Regulation of nuclear …: SAFSEAALEKKLSELSNSQQSVQTLSLWLIHHRKHSRPIVTVWERELRKAKPNRKLTFLYLANDVIQNSKRKGPEFTKDFAPVIVEAFKHVSSETDESCKKHLGRVLSIWEERSVYENDVLEQLKQALYGDKKPRKRTYEQIKVDENENCSSLGSPSEPPQTLDLVRALQDLENAASGDAAVHQRIASLPVEVQEVSLLDKITDKESGERLSKMVEDACMLLADYNGRLAAEIDDRKQLTRMLADFLRCQKEALAEKEHKLEEYKRKLARVSLVRKELRSRIQSLPDLSRLPNVTGSHMHLPFAGDIYSED
B3: TK1 (protein, UniProt P04183 2-234, looked up)
Thymidine kinase, cytosolic: SCINLPTVLPGSPSKTRGQIQVILGPMFSGKSTELMRRVRRFQIAQYKCLVIKYAKDTRYSSSFCTHDRNTMEALPACLLRDVAQEALGVAVIGIDEGQFFPDIVEFCEAMANAGKTVIVAALDGTFQRKPFGAILNLVPLAESVVKLTAVCMECFREAAYTKRLGTEKEVEVIGGADKYHSVCRLCYFKKASGQPAGPDNKENCPVPGKPGEAVAARKLFAPQQILQCSPAN
B4: MRE11A (protein, UniProt P49959 2-708, looked up)
Double-strand break repair …: STADALDDENTFKILVATDIHLGFMEKDAVRGNDTFVTLDEILRLAQENEVDFILLGGDLFHENKPSRKTLHTCLELLRKYCMGDRPVQFEILSDQSVNFGFSKFPWVNYQDGNLNISIPVFSIHGNHDDPTGADALCALDILSCAGFVNHFGRSMSVEKIDISPVLLQKGSTKIALYGLGSIPDERLYRMFVNKKVTMLRPKEDENSWFNLFVIHQNRSKHGSTNFIPEQFLDDFIDLVIWGHEHECKIAPTKNEQQLFYISQPGSSVVTSLSPGEAVKKHVGLLRIKGRKMNMHKIPLHTVRQFFMEDIVLANHPDIFNPDNPKVTQAIQSFCLEKIEEMLENAERERLGNSHQPEKPLVRLRVDYSGGFEPFSVLRFSQKFVDRVANPKDIIHFFRHREQKEKTGEEINFGKLITKPSEGTTLRVEDLVKQYFQTAEKNVQLSLLTERGMGEAVQEFVDKEEKDAIEELVKYQLEKTQRFLKERHIDALEDKIDEEVRRFRETRQKNTNEEDDEVREAMTRARALRSQSEESASAFSADDLMSIDLAEQMANDSDDSISAATNKGRGRGRGRRGGRGQNSASRGGSQRGRADTGLETSTRSRNSKTAVSASRNMSIIDAFKSTRQQPSRNVTTKNYSEVIEVDESDVEEDIFPTTSKTDQRWSSTSSSKIMSQSQVSKGVDFESSEDDDDDPFMNTSSLRRNRR
B5: SRRT (protein, UniProt Q9BXP5 2-876, looked up)
Serrate RNA effector molecule …: GDSDDEYDRRRRDKFRRERSDYDRSRERDERRRGDDWNDREWDRGRERRSRGEYRDYDRNRRERFSPPRHELSPPQKRMRRDWDEHSSDPYHSGYEMPYAGGGGGPTYGPPQPWGHPDVHIMQHHVLPIQARLGSIAEIDLGVPPPVMKTFKEFLLSLDDSVDETEAVKRYNDYKLDFRRQQMQDFFLAHKDEEWFRSKYHPDEVGKRRQEARGALQNRLRVFLSLMETGWFDNLLLDIDKADAIVKMLDAAVIKMEGGTENDLRILEQEEEEEQAGKPGEPSKKEEGRAGAGLGDGERKTNDKDEKKEDGKQAENDSSNDDKTKKSEGDGDKEEKKEDSEKEAKKSSKKRNRKHSGDDSFDEGSVSESESESESGQAEEEKEEAEEALKEKEKPKEEEWEKPKDAAGLECKPRPLHKTCSLFMRNIAPNISRAEIISLCKRYPGFMRVALSEPQPERRFFRRGWVTFDRSVNIKEICWNLQNIRLRECELSPGVNRDLTRRVRNINGITQHKQIVRNDIKLAAKLIHTLDDRTQLWASEPGTPPLPTSLPSQNPILKNITDYLIEEVSAEEEELLGSSGGAPPEEPPKEGNPAEINVERDEKLIKVLDKLLLYLRIVHSLDYYNTCEYPNEDEMPNRCGIIHVRGPMPPNRISHGEVLEWQKTFEEKLTPLLSVRESLSEEEAQKMGRKDPEQEVEKFVTSNTQELGKDKWLCPLSGKKFKGPEFVRKHIFNKHAEKIEEVKKEVAFFNNFLTDAKRPALPEIKPAQPPGPAQILPPGLTPGLPYPHQTPQGLMPYGQPRPPILGYGAGAVRPAVPTGGPPYPHAPYGAGRGNYDAFRGQGGYPGKPRNRMVRGDPRAIVEYRDLDAPDDVDFF

Assays:
3×MBT domain of L3MBTL1 = test: Triple SILAC pull-down, 3xMBT/3xMBTD355N ratio (cytoplasmic, nuclear and chromatin fractions of 293T cells); format: binding, human; settings: SILAC ratio 3xMBT vs 3xMBTD355N pull-down, 293T cells, all values in log base 2; for 3xMBT/D355N UNC Heavy: experiment with UNC0638 in heavy SILAC media; for 3xMBT/D355N UNC Light: experiment with UNC0638 in light SILAC media;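 for all read-outs here: proteins quantified with MaxQuant, requiring at least two unique peptides and quantification in both label directions, normalized to the mean of proteins from a digested loading control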
G9a and GLP = target: T1, G9a and GLP; test: Triple SILAC pull-down after UNC0638 treatment of 293T cells, DMSO/UNC0638 ratio of protein captured by 3×MBT; format: cell-based; design: cells were treated for 24 hours with UNC0638 at 2.5 μM or DMSO vehicle control; endogenous in cells; host or cells: HEK 293T; settings: all values in log base 2; for Relative to UNC0638 UNC Heavy / Relative to UNC0638 UNC Light: SILAC ratio DMSO relative to UNC0638, pull-down with 3xMBT; for Relative to UNC0638 UNC Heavy: UNC0638 in heavy SILAC media; for Relative to UNC0638 UNC Light: UNC0638 in light SILAC media; for Relative to UNC0638 Average: average of UNC Light and UNC Heavy experiments;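 for all read-outs here: mass spectrometry (Q-Exactive) SILAC quantitation, DMSO/UNC0638 ratio computed after subtracting 3×MBTD355N mutant pull-down background, only proteins with at least twofold 3×MBT over mutant signal considered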

Molecule	3xMBT/D355N UNC Heavy (3×MBT domain of L3MBTL1) [log base 2]	3xMBT/D355N UNC Light (3×MBT domain of L3MBTL1) [log base 2]	Relative to UNC0638 UNC Heavy (G9a and GLP) [log base 2]	Relative to UNC0638 UNC Light (G9a and GLP) [log base 2]	Relative to UNC0638 Average (G9a and GLP) [log base 2]
B1	2.70	2.15	0.13	0.03	0.08
B2	2.16	1.62	0.16	−0.02	0.07
B3	2.89	2.36	0.63	−0.50	0.07
B4	1.35	2.06	0.07	0.07	0.07
B5	2.15	2.41	0.02	0.15	0.08
